Test results as given in the supplement of paper PMC5998384.

Columns and labels:
HeLa Kyoto [1] = assay: solubility in G1/S (NP-40 vs SDS abundance) (log2 ratio); higher = more soluble; conditions: cell cycle stage: G1/S
HeLa Kyoto [2] = assay: melting temperature (median over replicates), in situ; higher = more thermally stable
HeLa Kyoto [3] = assay: thermal stability score vs G1/S (z-score of summed log2 fold changes over temperatures); higher = more thermally stable than in G1/S
HeLa Kyoto [4] = assay: solubility change mitosis vs G1/S (difference of NP-40 vs SDS log2 ratios) (log2 ratio difference); higher = more soluble in mitosis
[5] = cell cycle stage: early G1 (4.5 h after nocodazole release)
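Wherever melting temperature (median over replicates), in situ is given: HeLa Kyoto cells synchronized by double thymidine or nocodazole block, proteins quantified by TMT10plex mass spectrometry, three independent biological replicates.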
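Wherever solubility change mitosis vs G1/S (difference of NP-40 vs SDS log2 ratios) is given: synchronized HeLa Kyoto cells (double thymidine block for G1/S, nocodazole release for mitosis), protein amounts in NP-40 versus SDS lysates quantified by mass spectrometry, three biological replicates.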
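Wherever solubility in G1/S (NP-40 vs SDS abundance) is given: HeLa Kyoto cells arrested at G1/S by double thymidine block, proteins quantified by TMT10plex mass spectrometry in mild NP-40 versus SDS extracts, three biological replicates.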
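Wherever thermal stability score vs G1/S (z-score of summed log2 fold changes over temperatures) is given: synchronized HeLa Kyoto cells, proteins quantified by TMT10plex mass spectrometry, three biological replicates, mitosis taken 0.5 h after nocodazole release, G1/S directly after double thymidine block.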

“MKCFFPVLSCLAVLGVVSAQRQVTVQEGPLYRTEGSHITIWCNVSGYQGPSEQNFQWSIYLPSSPEREVQIVSTMDSSFPYAIYTQRVRGGKIFIERVQGNSTLLHITDLQARDAGEYECHTPSTDKQYFGSYSAKMNLVVIPDSLQTTAMPQTLHRVEQDPLELTCEVASETIQHSHLSVAWLRQKVGEKPVEVISLSRDFMLHSSSEYAQRQSLGEVRLDKLGRTTFRLTIFHLQPSDQGEFYCEAAEWIQDPDGSWYAMTRKRSEGAVVNVQPTDKEFTVRLETEKRLHTVGEPVEFRCILEAQNVPDRYFAVSWAFNSSLIATMGPNAVPVLNSEFAHREARGQLKVAKESDSVFVLKIYHLRQEDSGKYNCRVTEREKTVTGEFIDKESKRPKNIPIIVLPLKSSISVEVASNASVILEGEDLRFSCSVRTAGRPQGRFSVIWQLVDRQNRRSNIMWLDRDGTVQPGSSYWERSSFGGVQMEQVQPNSFSLGIFNSRKEDEGQYECHVTEWVRAVDGEWQIVGERRASTPISITALEMGFAVTAISRTPGVTYSDSFDLQCIIKPHYPAWVPVSVTWRFQPVGTVEFHDLVTFTRDGGVQWGDRSSSFRTRTAIEKAESSNNVRLSISRASDTEAGKYQCVAELWRKNYNNTWTRLAERTSNLLEIRVLQPVTKLQVSKSKRTLTLVENKPIQLNCSVKSQTSQNSHFAVLWYVHKPSDADGKLILKTTHNSAFEYGTYAEEEGLRARLQFERHVSGGLFSLTVQRAEVSDSGSYYCHVEEWLLSPNYAWYKLAEEVSGRTEVTVKQPDSRLRLSQAQGNLSVLETRQVQLECVVLNRTSITSQLMVEWFVWKPNHPERETVARLSRDATFHYGEQAAKNNLKGRLHLESPSPGVYRLFIQNVAVQDSGTYSCHVEEWLPSPSGMWYKRAEDTAGQTALTVMRPDASLQVDTVVPNATVSEKAAFQLDCSIVSRSSQDSRFAVAWYSLRTKAGGKRSSPGLEEQEEEREEEEEEDDDDDDDPTERTALLSVGPDAVFGPEGSPWEGRLRFQRLSPVLYRLTVLQASPQDTGNYSCHVEEWLPSPQKEWYRLTEEESAPIGIRVLDTSPTLQSIICSNDALFYFVFFYPFPIFGILIITILLVRFKSRNSSKNSDGKNGVPLLWIKEPHLNYSPTCLEPPVLSIHPGAID [IGSF3]” was tested, and the “solubility in G1/S (log2)” value (HeLa Kyoto [1]) was -0.0153, the melting temperature (HeLa Kyoto [2]; cell cycle stage: G1/S) was 54.3 °C and the melting temperature (HeLa Kyoto [2]; cell cycle stage: mitosis) was 53.8 °C. The thermal stability score (HeLa Kyoto [3]; [5]) was -2.57, the thermal stability score (HeLa Kyoto [3]; cell cycle stage: mitosis) was -2.96 and the “solubility change mitosis (log2)” value (HeLa Kyoto [4]) was -0.047.
THADA was tested, and the “solubility in G1/S (log2)” value (HeLa Kyoto [1]) was -0.395, the melting temperature (HeLa Kyoto [2]; cell cycle stage: G1/S) was 51.6 °C and the melting temperature (HeLa Kyoto [2]; cell cycle stage: mitosis) was 50.2 °C. The thermal stability score (HeLa Kyoto [3]; [5]) was -0.0368, the thermal stability score (HeLa Kyoto [3]; cell cycle stage: mitosis) was -1.12 and the “solubility change mitosis (log2)” value (HeLa Kyoto [4]) was -0.159.
With “MLGIWTLLPLVLTSVARLSSKSVNAQVTDINSKGLELRKTVTTVETQNLEGLHHDGQFCHKPCPPGERKARDCTVNGDEPDCVPCQEGKEYTDKAHFSSKCRRCRLCDEGHGLEVEINCTRTQNTKCRCKPNFFCNSTVCEHCDPCTKCEHGIIKECTLTSNTKCKEEGSRSNLGWLCLLLLPIPLIVWVKRKEVQKTCRKHRKENQGSHESPTLNPETVAINLSDVDLSKYITTIAGVMTLSQVKGFVRKNGVNEAKIDEIKNDNVQDTAEQKVQLLRNWHQLHGKKEAYDTLIKDLKKANLCTLAEKIQTIILKDITSDSENSNFRNEIQSLV [FAS]” the “solubility in G1/S (log2)” value (HeLa Kyoto [1]) was 0.525, the melting temperature (HeLa Kyoto [2]; cell cycle stage: G1/S) was 54.1 °C and the melting temperature (HeLa Kyoto [2]; cell cycle stage: mitosis) was 54.4 °C. The thermal stability score (HeLa Kyoto [3]; [5]) was -0.244, the thermal stability score (HeLa Kyoto [3]; cell cycle stage: mitosis) was -1.13 and the “solubility change mitosis (log2)” value (HeLa Kyoto [4]) was 0.0304.
For “MKEPLLGGECDKAVASQLGLLDEIKTEPDNAQEYCHRQQSRTQENELKINAVFSESASQLTAGIQLSLASSGVNKMLPSVSTTAIQVSCAGCKKILQKGQTAYQRKGSAQLFCSIPCITEYISSASSPVPSKRTCSNCSKDILNPKDVISVQLEDTTSCKTFCSLSCLSSYEEKRKPFVTICTNSILTKCSMCQKTAIIQYEVKYQNVKHNLCSNACLSKFHSANNFIMNCCENCGTYCYTSSSLSHILQMEGQSHYFNSSKSITAYKQKPAKPLISVPCKPLKPSDEMIETTSDLGKTELFCSINCFSAYSKAKMESSSVSVVSVVHDTSTELLSPKKDTTPVISNIVSLADTDVALPIMNTDVLQDTVSSVTATADVIVDLSKSSPSEPSNAVASSSTEQPSVSPSSSVFSQHAIGSSTEVQKDNMKSMKISDELCHPKCTSKVQKVKGKSRSIKKSCCADFECLENSKKDVAFCYSCQLFCQKYFSCGRESFATHGTSNWKKTLEKFRKHEKSEMHLKSLEFWREYQFCDGAVSDDLSIHSKQIEGNKKYLKLIIENILFLGKQCLPLRGNDQSVSSVNKGNFLELLEMRAKDKGEETFRLMNSQVDFYNSTQIQSDIIEIIKTEMLQDIVNEINDSSAFSIICDETINSAMKEQLSICVRYPQKSSKAILIKERFLGFVDTEEMTGTHLHRTIKTYLQQIGVDMDKIHGQAYDSTTNLKIKFNKIAAEFKKEEPRALYIHCYAHFLDLSIIRFCKEVKELRSALKTLSSLFNTICMSGEMLANFRNIYRLSQNKTCKKHISQSCWTVHDRTLLSVIDSLPEIIETLEVIASHSSNTSFADELSHLLTLVSKFEFVFCLKFLYRVLSVTGILSKELQNKTIDIFSLSSKIEAILECLSSERNDVYFKTIWDGTEEICQKITCKGFKVEKPSLQKRRKIQKSVDLGNSDNMFFPTSTEEQYKINIYYQGLDTILQNLKLCFSEFDYCKIKQISELLFKWNEPLNETTAKHVQEFYKLDEDIIPELRFYRHYAKLNFVIDDSCINFVSLGCLFIQHGLHSNIPCLSKLLYIALSWPITSASTENSFSTLPRLKTYLCNTMGQEKLTGPALMAVEQELVNKLMEPERLNEIVEKFISQMKEI [ZMYM1]”, the “solubility in G1/S (log2)” value (HeLa Kyoto [1]) was -0.155, the melting temperature (HeLa Kyoto [2]; cell cycle stage: mitosis) was 50.4 °C and the thermal stability score (HeLa Kyoto [3]; [5]) was 0.329. For the same substance, the thermal stability score (HeLa Kyoto [3]; cell cycle stage: mitosis) was 0.818 and the “solubility change mitosis (log2)” value (HeLa Kyoto [4]) was -0.06.
For “MAENHAQNKAKLISETRRRFEAEYVTDKSDKYDARDVERLQQDDNWVESYLSWRHNIVDETLKMLDESFQWRKEISVNDLNESSIPRWLLEIGVIYLHGYDKEGNKLFWIRVKYHVKDQKTILDKKKLIAFWLERYAKRENGKPVTVMFDLSETGINSIDMDFVRFIINCFKVYYPKYLSKIVIFDMPWLMNAAFKIVKTWLGPEAVSLLKFTSKNEVQDYVSVEYLPPHMGGTDPFKYSYPPLVDDDFQTPLCENGPITSEDETSSKEDIESDGKETLETISNEEQTPLLKKINPTESTSKAEENEKVDSKVKAFKKPLSVFKGPLLHISPAEELYFGSTESGEKKTLIVLTNVTKNIVAFKVRTTAPEKYRVKPSNSSCDPGASVDIVVSPHGGLTVSAQDRFLIMAAEMEQSSGTGPAELTQFWKEVPRNKVMEHRLRCHTVESSKPNTLTLKDNAFNMSDKTSEDICLQLSRLLESNRKLEDQVQRCIWFQQLLLSLTMLLLAFVTSFFYLLYS [MOSPD2]”, the “solubility in G1/S (log2)” value (HeLa Kyoto [1]) was -0.0365, the melting temperature (HeLa Kyoto [2]; cell cycle stage: G1/S) was 51.4 °C and the melting temperature (HeLa Kyoto [2]; cell cycle stage: mitosis) was 51.4 °C. The thermal stability score (HeLa Kyoto [3]; [5]) was 1.72, the thermal stability score (HeLa Kyoto [3]; cell cycle stage: mitosis) was 0.81 and the “solubility change mitosis (log2)” value (HeLa Kyoto [4]) was -0.115.
For “MTTDEGAKNNEESPTATVAEQGEDITSKKDRGVLKIVKRVGNGEETPMIGDKVYVHYKGKLSNGKKFDSSHDRNEPFVFSLGKGQVIKAWDIGVATMKKGEICHLLCKPEYAYGSAGSLPKIPSNATLFFEIELLDFKGEDLFEDGGIIRRTKRKGEGYSNPNEGATVEIHLEGRCGGRMFDCRDVAFTVGEGEDHDIPIGIDKALEKMQREEQCILYLGPRYGFGEAGKPKFGIEPNAELIYEVTLKSFEKAKESWEMDTKEKLEQAAIVKEKGTVYFKGGKYMQAVIQYGKIVSWLEMEYGLSEKESKASESFLLAAFLNLAMCYLKLREYTKAVECCDKALGLDSANEKGLYRRGEAQLLMNEFESAKGDFEKVLEVNPQNKAARLQISMCQKKAKEHNERDRRIYANMFKKFAEQDAKEEANKAMGKKTSEGVTNEKGTDSQAMEEEKPEGHV [FKBP5]”, the “solubility in G1/S (log2)” value (HeLa Kyoto [1]) was 0.0823, the melting temperature (HeLa Kyoto [2]; cell cycle stage: G1/S) was 46.7 °C and the melting temperature (HeLa Kyoto [2]; cell cycle stage: mitosis) was 48.6 °C. The thermal stability score (HeLa Kyoto [3]; [5]) was 2.48, the thermal stability score (HeLa Kyoto [3]; cell cycle stage: mitosis) was 4.23 and the “solubility change mitosis (log2)” value (HeLa Kyoto [4]) was -0.124.
For “MANDSGGPGGPSPSERDRQYCELCGKMENLLRCSRCRSSFYCCKEHQRQDWKKHKLVCQGSEGALGHGVGPHQHSGPAPPAAVPPPRAGAREPRKAAARRDNASGDAAKGKVKAKPPADPAAAASPCRAAAGGQGSAVAAEAEPGKEEPPARSSLFQEKANLYPPSNTPGDALSPGGGLRPNGQTKPLPALKLALEYIVPCMNKHGICVVDDFLGKETGQQIGDEVRALHDTGKFTDGQLVSQKSDSSKDIRGDKITWIEGKEPGCETIGLLMSSMDDLIRHCNGKLGSYKINGRTKAMVACYPGNGTGYVRHVDNPNGDGRCVTCIYYLNKDWDAKVSGGILRIFPEGKAQFADIEPKFDRLLFFWSDRRNPHEVQPAYATRYAITVWYFDADERARAKVKYLTGEKGVRVELNKPSDSVGKDVF [EGLN1]”, the “solubility in G1/S (log2)” value (HeLa Kyoto [1]) was 0.331, the melting temperature (HeLa Kyoto [2]; cell cycle stage: G1/S) was 49.3 °C and the melting temperature (HeLa Kyoto [2]; cell cycle stage: mitosis) was 50.2 °C. For the same substance, the thermal stability score (HeLa Kyoto [3]; [5]) was 2.53, the thermal stability score (HeLa Kyoto [3]; cell cycle stage: mitosis) was 0.714 and the “solubility change mitosis (log2)” value (HeLa Kyoto [4]) was 0.0496.
With “MEWWASSPLRLWLLLFLLPSAQGRQKESGSKWKVFIDQINRSLENYEPCSSQNCSCYHGVIEEDLTPFRGGISRKMMAEVVRRKLGTHYQITKNRLYRENDCMFPSRCSGVEHFILEVIGRLPDMEMVINVRDYPQVPKWMEPAIPVFSFSKTSEYHDIMYPAWTFWEGGPAVWPIYPTGLGRWDLFREDLVRSAAQWPWKKKNSTAYFRGSRTSPERDPLILLSRKNPKLVDAEYTKNQAWKSMKDTLGKPAAKDVHLVDHCKYKYLFNFRGVAASFRFKHLFLCGSLVFHVGDEWLEFFYPQLKPWVHYIPVKTDLSNVQELLQFVKANDDVAQEIAERGSQFIRNHLQMDDITCYWENLLSEYSKFLSYNVTRRKGYDQIIPKMLKTEL [POGLUT1]” the “solubility in G1/S (log2)” value (HeLa Kyoto [1]) was 0.28, the melting temperature (HeLa Kyoto [2]; cell cycle stage: G1/S) was 52.9 °C and the melting temperature (HeLa Kyoto [2]; cell cycle stage: mitosis) was 54 °C. The thermal stability score (HeLa Kyoto [3]; [5]) was 2.61, the thermal stability score (HeLa Kyoto [3]; cell cycle stage: mitosis) was 3.25 and the “solubility change mitosis (log2)” value (HeLa Kyoto [4]) was -0.0965.
